One block for each binder: values may come before it.
What was measured:
[1] = biological target: T1, hOX40-EGFP on HEK293 cells (human, UniProt P43489 29-277); assay: FACS on hOX40-EGFP HEK293 cells
T1 construct: EGFP fusion expressed on transfected HEK293 cells; also called human OX40
T1 sequence (looked up): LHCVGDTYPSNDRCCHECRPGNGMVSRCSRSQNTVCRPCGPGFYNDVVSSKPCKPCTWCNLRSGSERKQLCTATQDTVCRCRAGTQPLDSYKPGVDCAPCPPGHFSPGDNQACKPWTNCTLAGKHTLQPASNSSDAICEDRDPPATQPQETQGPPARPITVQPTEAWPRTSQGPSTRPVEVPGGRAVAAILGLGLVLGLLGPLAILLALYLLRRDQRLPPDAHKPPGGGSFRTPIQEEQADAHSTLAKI
Description: (§1) The hCD137-EGFP, hOX40-EGFP and hGITR-EGFP cells as described in Example 1 were washed twice in PBS, 10 μg/ml of each chimeric antibody as prepared in Example 3 (m2E7, m2B8, m4H3, m3E7, m1A8, m4G1, m2G3, m2F11 and m3B8) was added to each type of cells and incubated at 4° C. for 30 min. Then it was washed twice with PBS, anti-human Ig-APC (Jackson ImmunoResearch Laboratories, Cat #109-135-098) was added and were incubated at 4° C. for 30 min, washed twice with PBS and resuspended in 300 μl PBS. In FIG. 2, NC represents negative control (PBS), a-hlg-APC represents secondary antibody only, the other panels represent results obtained with each of the corresponding clone, respectively.

[2] = biological target: T2, hGITR-EGFP on HEK293 cells (human, UniProt Q9Y5U5 26-241); assay: FACS on hGITR-EGFP HEK293 cells
T2 construct: EGFP fusion expressed on transfected HEK293 cells; also called human GITR
T2 sequence (looked up): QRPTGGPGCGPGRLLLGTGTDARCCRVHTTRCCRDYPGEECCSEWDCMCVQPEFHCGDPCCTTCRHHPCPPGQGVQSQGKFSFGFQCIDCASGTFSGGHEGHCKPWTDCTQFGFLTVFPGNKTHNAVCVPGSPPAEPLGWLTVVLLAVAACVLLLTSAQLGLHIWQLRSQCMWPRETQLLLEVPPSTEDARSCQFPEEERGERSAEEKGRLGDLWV
Description: as §1

[3] = biological target: T3, hCD27-EGFP on HEK293 cells (human, UniProt P26842 20-260); assay: FACS on CD27-EGFP HEK293 cells, 10 µg/ml antibody
T3 construct: EGFP fusion expressed on transfected HEK293 cells; also called CD27-EGFP cells; cell surface CD27
T3 sequence (looked up): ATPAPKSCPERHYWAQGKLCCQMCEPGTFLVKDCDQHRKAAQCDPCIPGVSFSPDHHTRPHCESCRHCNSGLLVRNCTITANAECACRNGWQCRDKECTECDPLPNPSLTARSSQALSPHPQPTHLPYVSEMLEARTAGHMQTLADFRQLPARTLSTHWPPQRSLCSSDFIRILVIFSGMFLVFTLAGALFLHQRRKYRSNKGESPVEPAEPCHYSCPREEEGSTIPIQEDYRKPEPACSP
Description: 5×10⁵ CD27-EGFP cells prepared in Example 1 were washed twice in PBS, 10 μg/ml of each chimeric antibody prepared in Example 3 (m2E7, m2B8, m4H3, m3E7, m1A8, m4G1, m2G3, m2F11 and m3B8) was added to the cells and incubated at 4° C. for 30 min. Then it was washed twice in PBS, anti-human Ig-APC (Jackson ImmunoResearch Laboratories, Cat #109-135-098) was added, incubated at 4° C. for 30 min, washed twice with PBS and resuspended in 300 μl PBS. In FIG. 1, NC represents negative control (PBS), a-hlg-APC represents secondary antibody only, the other panels represent results obtained with each of the corresponding clone, respectively.

[4] = biological target: T4, hCD137-EGFP on HEK293 cells (human, UniProt Q07011 24-255); assay: FACS on hCD137-EGFP HEK293 cells
T4 construct: EGFP fusion expressed on transfected HEK293 cells; also called human CD137
T4 sequence (Q07011 24-255): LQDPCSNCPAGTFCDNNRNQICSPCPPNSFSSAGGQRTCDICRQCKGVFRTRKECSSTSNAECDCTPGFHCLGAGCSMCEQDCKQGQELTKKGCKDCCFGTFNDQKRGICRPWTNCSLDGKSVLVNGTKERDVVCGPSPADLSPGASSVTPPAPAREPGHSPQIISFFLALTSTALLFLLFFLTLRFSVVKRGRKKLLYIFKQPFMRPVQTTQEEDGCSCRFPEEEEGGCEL
Description: as §1

[5] = biological target: T1, hOX40-EGFP on HEK293 cells; assay: FACS dot plot on OX40-EGFP HEK293 cells, anti-human Ig-APC secondary
Description: as §1

hCD27-muFc [6] = biological target: T5, hCD27-muFc (human; mouse, UniProt P26842 20-192); assay: BLI (Octet K2), antibody on Protein A biosensor, hCD27-muFc in solution
T5 construct: range 1-192; Secreted from HEK293, Protein A purified; not shown: mouse IgG1-Fc (muFc), residues 98 to 324 of UniProt P01868
T5 sequence (looked up): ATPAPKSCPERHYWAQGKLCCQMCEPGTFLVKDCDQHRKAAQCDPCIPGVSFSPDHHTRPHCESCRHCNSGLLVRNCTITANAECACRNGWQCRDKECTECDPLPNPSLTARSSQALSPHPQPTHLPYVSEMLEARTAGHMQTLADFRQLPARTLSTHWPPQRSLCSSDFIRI
Description: Using the BLI method, each humanized antibody was immobilized on a Protein A biosensor at a concentration of 10 μg/ml, while hCD27-muFc was subjected to 2-fold serial dilution, starting from 100 nM, to obtain 5 gradient dilutions for each antibody. The reaction plate was placed on the Octet K2 instrument. The parameters were set to Baseline 70 s, Association 80 s, Dissociation 300 s, Baseline 260 s, Loading 40 s, and Custom 5 s.

[7] = biological target: T3, hCD27-EGFP on HEK293 cells; assay: FACS titration on CD27-EGFP HEK293 cells, 8 three-fold dilutions from 20 µg/ml, anti-human Ig-APC secondary, MFI; table drawn under the plot, unit from the x axis; no upper plateau reached
Description: Based on the above results of ELISA, 7 humanized antibodies were selected to examine their affinities to cell surface CD27. Briefly, 5×10⁵ CD27-EGFP cells prepared in Example 1 were washed twice in PBS, each of the humanized antibodies (d16647, d12996, d9419, 14822, 9424, d14822, d12674) was added. The antibodies were subjected to 3-fold serial dilution, starting from 20 μg/ml, to obtain 8 gradient dilutions for each antibody. The antibodies and the cells were incubated at 4° C. for 30 min. Then, it was washed twice with PBS, anti-human Ig-APC (Jackson ImmunoResearch Laboratories, Cat #109-135-098) was added, and incubated at 4° C. for 30 min, washed twice with PBS and resuspended in 300 μl PBS. Flow cytometry was then performed, and the results are shown in FIG. 6. m2F11 was used as a control.

hCD27-muFc [8] = biological target: T5, hCD27-muFc; assay: ELISA, plate coated with hCD27-muFc, Test 2
Description: (§2) The ELISA plate was coated with 2 μg/ml hCD27-muFc, 100 μl/well and incubated at 4° C. overnight. Then it was washed once with 10 mM, pH 7.4 PBS/Tween (0.05%), blocked with PBST containing 5% skimmed milk powder and incubated at 37° C. for 2 h. After washing the plate for 4 times, the humanized antibodies were added and incubated at 37° C. for 40 min, then it was washed for 4 times. Anti-human IgG-HRP-conjugated secondary antibody (Sigma, Cat #A0170-1M) was added and incubated at 37° C. for 40 min. After washing, the plate was developed with TMB substrate and spectrophotometric analysis was performed at OD₄₅₀. In FIGS. 5A-5B, each curve represents the binding result obtained for one of the humanized antibodies. From the results, it can be seen that all these humanized antibodies could bind to human CD27.

hCD27-muFc [9] = biological target: T5, hCD27-muFc; assay: ELISA, plate coated with hCD27-muFc, Test 1
Description: as §2

[10] = biological target: T4, hCD137-EGFP on HEK293 cells; assay: FACS dot plot on CD137-EGFP HEK293 cells, anti-human Ig-APC secondary
Description: as §1

binding result [1]: no binding (tested: 10 µg/ml) | binding result [2]: no binding (tested: 10 µg/ml) | binding result [3]: binds | binding result [4]: no binding (tested: 10 µg/ml)
B1: m3E7 (antibody, human IgG1, V domains shown)
VH: QIQLVQSGPELKKPGETVKISCKASGYTFTTYGMSWVKQAPGKGLHWMGWINTHSGAPTYVDDFKGRFAFSLETSASTAFLQINNLINEDTATYFCAREGDALDYWGQGTSVTVSS
VL: DIVMTQTTAIMSAFPGEKVTMTCSASSSVSYMHWYQQKSGTSPKRWIYDTSKLASGVPVRFSGSGSGTSYSLTISNMEAEDAATYYCQQWSRNPPFTFGAGTKLELK
notes: Chimeric antibody: mouse VH/VL on human IgG1 / human kappa constant regions; also called clone 3E7; not shown: human IgG1 constant region, UniProt P01857

binding result [2]: no binding (tested: 10 µg/ml) | binding result [5]: no binding (tested: 10 µg/ml) | Kd (hCD27-muFc [6]): 0.835 nM | koff (hCD27-muFc [6]): 0.000108 s⁻¹ | kon (hCD27-muFc [6]): 130000 M⁻¹ s⁻¹ | LogEC50 [7]: 0.417 Log10(ug/ml) | EC50 (hCD27-muFc [8]): 0.0279 µg/mL | EC50 (hCD27-muFc [9]): 0.0315 µg/mL | binding result [10]: no binding (tested: 10 µg/ml)
B2: m2F11 (antibody, human IgG1, V domains shown)
VH: EVQLQESGGDLVKPGGSLKLSCAASGFTFSSYAMSWVRQTPEKRLEWVAIIGDGDTYTYYPDSVKGRFTVSRDNAKNNLYLQMSHLKSEDTAMYYCVRTRGGPFDYWGQGTTLTVSS
VL: DIVLTQTPALMSASPGEKVTMTCSASSSVGSMHWYQQKSGTSPKRWIYDTSKLASGVPARFSGSGSGTSYSLTISSMEAEDAATYYCQQWSSIPPTFGAGTTLELK
notes: Chimeric antibody: mouse VH/VL on human IgG1 / human kappa constant regions; Parent of the humanized antibodies; also called clone 2F11; not shown: human IgG1 constant region, UniProt P01857

Source: US20210179726A1 (DINGFU BIOTARGET, published 2021)
